The source of these data is PMC12089419, “Synergistic regulation of DACH1 stability by acetylation and deubiquitination promotes colorectal cancer progression” (Cell Death & Disease, 2025).

This assay concerns the target T1, GST-USP7 (UniProt Q93009 1-1102).
T1 construct: USP7, cloned in pGEX-4T-1; also called GST-tagged USP7; source: plasmid in pGEX-4T-1
Description: pull-down; purified DACH1 incubated with GST or GST-USP7 conjugated with GSH-Sepharose, followed by Coomassie blue staining. The note with it: both partners purified.

T1 sequence (Q93009 whole entry): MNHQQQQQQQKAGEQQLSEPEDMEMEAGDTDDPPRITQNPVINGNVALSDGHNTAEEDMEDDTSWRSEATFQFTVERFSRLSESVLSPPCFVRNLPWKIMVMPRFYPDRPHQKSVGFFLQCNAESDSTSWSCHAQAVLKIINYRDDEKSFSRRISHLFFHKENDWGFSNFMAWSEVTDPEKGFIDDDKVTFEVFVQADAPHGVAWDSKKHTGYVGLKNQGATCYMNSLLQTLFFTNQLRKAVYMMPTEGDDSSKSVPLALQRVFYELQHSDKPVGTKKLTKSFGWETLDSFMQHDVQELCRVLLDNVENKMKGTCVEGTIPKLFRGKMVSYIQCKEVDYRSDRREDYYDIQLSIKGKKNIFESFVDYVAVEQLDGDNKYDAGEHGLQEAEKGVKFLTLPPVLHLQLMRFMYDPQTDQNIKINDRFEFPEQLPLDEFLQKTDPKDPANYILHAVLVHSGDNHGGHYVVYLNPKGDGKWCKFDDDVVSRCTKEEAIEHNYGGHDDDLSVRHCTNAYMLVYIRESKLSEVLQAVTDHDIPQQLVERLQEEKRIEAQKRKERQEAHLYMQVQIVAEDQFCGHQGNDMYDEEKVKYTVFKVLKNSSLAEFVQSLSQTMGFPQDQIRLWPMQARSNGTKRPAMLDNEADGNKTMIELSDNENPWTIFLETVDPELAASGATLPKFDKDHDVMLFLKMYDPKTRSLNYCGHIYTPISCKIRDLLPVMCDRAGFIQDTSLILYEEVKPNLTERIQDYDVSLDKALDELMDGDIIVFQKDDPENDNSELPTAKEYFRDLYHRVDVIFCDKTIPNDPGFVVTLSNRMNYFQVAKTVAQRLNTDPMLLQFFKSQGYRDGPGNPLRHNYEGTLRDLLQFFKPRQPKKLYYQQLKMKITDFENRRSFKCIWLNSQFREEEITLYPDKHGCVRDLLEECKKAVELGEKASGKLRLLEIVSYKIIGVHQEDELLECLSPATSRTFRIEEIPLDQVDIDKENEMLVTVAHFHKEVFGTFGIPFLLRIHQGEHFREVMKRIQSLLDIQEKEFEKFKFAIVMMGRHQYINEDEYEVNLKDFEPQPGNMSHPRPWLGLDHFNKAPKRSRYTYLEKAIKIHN

B1: Myc-DACH1-FL (natural protein, human, UniProt Q9UI36 1-758, looked up)
chain: MAVPAALIPPTQLVPPQPPISTSASSSGTTTSTSSATSSPAPSIGPPASSGPTLFRPEPIASAAAAAATVTSTGGGGGGGGSGGGGGSSGNGGGGGGGGGGSNCNPNLAAASNGSGGGGGGISAGGGVASSTPINASTGSSSSSSSSSSSSSSSSSSSSSSSSCGPLPGKPVYSTPSPVENTPQNNECKMVDLRGAKVASFTVEGCELICLPQAFDLFLKHLVGGLHTVYTKLKRLEITPVVCNVEQVRILRGLGAIQPGVNRCKLISRKDFETLYNDCTNASSRPGRPPKRTQSVTSPENSHIMPHSVPGLMSPGIIPPTGLTAAAAAAAAATNAAIAEAMKVKKIKLEAMSNYHASNNQHGADSENGDMNSSVGSSDGSWDKETLPSSPSQGPQASITHPRMPGARSLPLSHPLNHLQQSHLLPNGLELPFMMMPHPLIPVSLPPASVTMAMSQMNHLSTIANMAAAAQVQSPPSRVETSVIKERVPDSPSPAPSLEEGRRPGSHPSSHRSSSVSSSPARTESSSDRIPVHQNGLSMNQMLMGLSPNVLPGPKEGDLAGHDMGHESKRMHIEKDETPLSTPTARDSLDKLSLTGHGQPLPPGFPSPFLFPDGLSSIETLLTNIQGLLKVAIDNARAQEKQVQLEKTELKMDFLRERELRETLEKQLAMEQKNRAIVQKRLKKEKKAKRKLQEALEFETKRREQAEQTLKQAASTDSLRVLNDSLTPEIEADRSGGRTDAERTIQDGRLYLKTTVMY
notes: DACH1, human, full length (FL), cloned in pcDNA3.1 or a lentiviral plasmid; the text calls it Myc-tagged DACH1; also called Myc-tagged DACH1; Myc-tagged FL DACH1; source: HEK293T or SW480, transfected, in lysate; HCT8, stably expressed, whole cell extracts
For B1, the binding result is listed as “binds”.
